Measured values taken from paper PMC4285326, “Structure and interactions of the Bacillus subtilis sporulation inhibitor of DNA replication, SirA, with domain I of DnaA” (Molecular Microbiology, 2014).
Numbering of substitutions follows the chain as printed. Names may count otherwise.

B1: SirA (sporulation inhibitor of DNA replication), Bacillus subtilis (natural protein, B. subtilis, UniProt P45707 1-148, looked up)
chain: MERHYYTYLIKEEFANHYFGRESVMFELFQDYHWTSLEKQQYEMTEKQIQYITQPIPILHMHQRLKMNLNKTDYRQLDYIYRIALPKAKGHATFMMKEHMIEIVASGDYEAETIFFEVLRKVSPCFLAMDFNSKRYGWLNPVKERNFV
modifications: 2-mercaptoethanol linked through a disulphide bond to Cys125 (seen in the crystal and by mass spectrometry)
notes: SirA, B. subtilis, amplified from genomic DNA, untagged; model has residues 2-141, Met1 and residues 142-148 disordered; Soluble only when coexpressed with DnaA^DI; A selenomethionine-substituted form was also crystallised for phasing; also called wild type SirA; native SirA; source: E. coli BL21 (DE3), coexpressed with His-DnaA^DI from pET-YSBLIC3C-DnaA^DISirA
B2: His-tagged DnaA domain I (His-DnaA^DI), Bacillus subtilis (domain or fragment, B. subtilis, UniProt P05648 1-82, looked up)
chain: MENILDLWNQALAQIEKKLSKPSFETWMKSTKAHSLQGDTLTITAPNEFARDWLESRYLHLIADTIYELTGEELSIKFVIPQ
notes: DnaA, B. subtilis, domain I (N-terminal domain); residues 1-81 defined in the crystal, C-terminal Gln82 disordered; 3C protease cleavable N-terminal His-tag, not cleaved in these experiments; also called His-tagged DnaA^DI; wild type DnaA^DI; source: E. coli BL21 (DE3), coexpressed with SirA from pET-YSBLIC3C-DnaA^DISirA; not shown: His6, N-terminal, kept
B3: SirA Y18A, Bacillus subtilis (natural protein, B. subtilis, UniProt P45707 1-148, looked up)
chain: B1 chain with Y18A
notes: SirA, B. subtilis, untagged, with Tyr18Ala; also called Tyr18Ala; source: E. coli BL21, coexpressed with His-DnaA^DI, in soluble lysate
B4: DnaA domain I (DnaA^DI), Bacillus subtilis, His-tag removed (domain or fragment, B. subtilis)
chain: GPAMENILDLWNQALAQIEKKLSKPSFETWMKSTKAHSLQGDTLTITAPNEFARDWLESRYLHLIADTIYELTGEELSIKFVIPQ
notes: DnaA, B. subtilis, domain I (N-terminal domain); residues 1-81 defined in the crystal, C-terminal Gln82 disordered; Calculated molecular mass 9.7 kDa; also called N-terminal domain of DnaA; not shown: His6, N-terminal, cleaved
B5: SirA F14A, Bacillus subtilis (natural protein, B. subtilis, UniProt P45707 1-148, looked up)
chain: B1 chain with F14A
notes: SirA, B. subtilis, untagged, with Phe14Ala; also called Phe14Ala; source: E. coli BL21, coexpressed with His-DnaA^DI, in soluble lysate
B6: SirA Q48A, Bacillus subtilis (natural protein, B. subtilis, UniProt P45707 1-148, looked up)
chain: B1 chain with Q48A
notes: SirA, B. subtilis, untagged, with Gln48Ala; also called Gln48Ala; source: E. coli BL21, coexpressed with His-DnaA^DI, in soluble lysate

Tests used:
[1] = molecular target: B4; assay: SEC-MALS; Superdex 75 HR 10/30, 50 mM Tris pH 8.5, 200 mM KCl, 0.5 ml min^-1; DnaA^DI at 1.0, 2.5 and 5.0 mg ml^-1; SirA-DnaA^DI at 0.5, 1.0 and 2.5 mg ml^-1; conditions: both partners purified
[2] = molecular target: T1, DnaA domain I (DnaA^DI), Bacillus subtilis, His-tag removed (Bacillus subtilis (strain 168), UniProt P05648); assay: SEC-MALLS (1:1 heterodimer), Ni-NTA co-purification/pull-down, crystal structure; SirA soluble only when co-expressed with DnaA^DI; complex purified as such, not mixed from separate proteins
T1 chain: B4 chain

[3] = molecular target: B1; assay: pull-down; soluble lysate of E. coli coexpressing His-DnaA^DI and untagged SirA loaded onto a HisTrap FF crude Ni-affinity column in 50 mM Tris pH 8.5, 200 mM KCl, 20 mM imidazole, 10 mM BME; washed; eluted with 500 mM imidazole; eluates normalised to DnaA^DI, SDS-PAGE with Coomassie staining, bands quantified with ImageJ; conditions: partners not purified
[4] = molecular target: B2; assay: as above; conditions: partners not purified
[5] = molecular target: B1; assay: crystal structure; native crystals, space group P2_1, two complexes per asymmetric unit; 100 mM HEPES pH 7.5, 200 mM NH4 acetate, 25% PEG 3350, 1% DMF; SAD phasing from SeMet crystals, then molecular replacement; conditions: both partners purified

B1
stoichiometry N [1]: 1 | binding result [2]: binds

B2
binding result [3]: binds

B3
fold lower recovery relative to wild type SirA [4]: 2.5 fold

B4
binding result [5]: binds

B5
fold lower recovery relative to wild type SirA [4]: 1.5 fold

B6
fold lower recovery relative to wild type SirA [4]: 1.5 fold
